Experiments:
EGFR-mFc = biological target: T1, EGFR-mFc (human; mouse, UniProt P00533 25-645); test: flow cytometry, CAR T cells stained with mFc fusion protein, Day 4
T1 construct: extracellular domain; Produced in HEK293 cells; also called recombinant EGFR-mFc; not shown: mouse IgG1-Fc domain
Excerpt: To determine target binding specificity of the CARs, recombinant proteins EGFRvII-mFc and EGFR-mFc, which comprise of the extracellular domain of either human EGFRvIII or human wild-type EGFR, respectively, fused with mouse IgG1-Fc domain, were produced in HEK293 cells. […]

[1] = biological target: T2, human EGFRvIII expressed on cells (human, UniProt P00533 298-1210); test: flow cytometry, F98-npEGFRvIII against F98, F98-EGFRwt and A431 cells
T2 construct: the F98-npEGFRvIII line was obtained from ATCC and its construct is not described; also called F98-npEGFRvIII; F98-EGFRvIII

[2] = biological target: T2, human EGFRvIII expressed on cells; test: flow cytometry, F98-npEGFRvIII cells
[3] = biological target: T3, 8-histidine tagged recombinant wild-type protein EGFRwt (UniProt P00533 25-645, limits assumed); test: SPR, captured by anti-mouse Fc
T3 construct: not shown: 8-histidine tag

[4] = biological target: T4, Monomeric 8-histidine tagged human EGFRvIII extracellular domain (human, UniProt P00533 298-645); test: SPR, captured by anti-mouse Fc, 37 C
T4 construct: Analyte in all SPR assays; not shown: 8-histidine tag
Excerpt: To generate human antibodies against EGFRvIII, transgenic AlivaMab mice (Ablexis LLC, San Francisco, Calif.) were immunized with alternating schedule of paraformaldehyde-fixed rat glioblastoma cell line expressing EGFRvIII, F98-npEGFRvIII (American Type Culture Collection, Manassas, Va.) and peptides (SEQ ID NO: 227: […]) directed to the junction region in EGFRvIII. Hybridomas were generated using standard techniques. To determine the binding affinity and specificity of these hybridomas to EGFRvIII, antibodies in culture supernatants were captured by anti-mouse Fc using Biacore™ T200 biosensor equipped with anti-mouse Fc coupled CM4 sensor chips (Biacore™ AB, Uppsala, Sweden—now GE Healthcare). Monomeric 8-histidine tagged human EGFRvIII extracellular domain was then injected as the analyte at 10-fold dilution series starting with top concentration 1000 nM. Affinity of anti-EGFRvIII antibodies towards human EGFRvIII was measured at 37° C.

[5] = biological target: T3, 8-histidine tagged recombinant …; test: SPR, captured by anti-human Fc, 25 C
[6] = biological target: T4, Monomeric 8-histidine tagged human …; test: SPR, scFv-Fc captured by anti-human Fc, 37 C
Procedure: The scFv fragment was then fused to human IgG1 Fc moiety to facilitate recombinant expression and purification. Affinities of the scFv-Fc fusion proteins were measured at 37° C. on a surface plasmon resonance Biacore™ T200 biosensor equipped with an anti-human Fc coupled CM4 sensor chip (GE Healthcare Inc., Piscataway, N.J.) as described above. scFv-Fc proteins were captured by anti-human Fc. Monomeric 8-histidine tagged human EGFRvIII extracellular domain was then injected as the analyte at 10-fold dilution series starting at 1000 nM.

| binding result (EGFR-mFc) | fold MFI on EGFRvIII expressing cell line over non-expressing cell lines [1] | % positive [2] | MFI [2] | binding result [3] | Kd [4] | koff [4] | kon [4] | binding result [5] | Kd [6] | koff [6] | kon [6] | Binder |
| --- | --- | --- | --- | --- | --- | --- | --- | --- | --- | --- | --- | --- |
| no binding |  |  |  |  |  |  |  |  |  |  |  | h62G7-L6/EQ EGFRvIII specific CAR (other, Chimeric antigen receptor on primary human T cells) DVVMTQSPLSLPVTLGQPASISCKSSQSLLYSNGKTYLNWFQQRPGQSPRRLIYQVSKLDSGVPDRFSGSGSGTDFTLKISRVEAEDVGVYYCGQDTHFPLTFGGGTKVEIKGGGGSGGGGSGGGGSGGGGSQVQLVQSGAEVKKPGASVKVSCKASGYTFTDYTLHWVRQAPGQGLEWMGGIWPITGGTTYNQKFKGRVTMTRDTSTSTVYMELSSLRSEDTAVYYCARGEAQGSWGQGTLVTVSSTTTPAPRPPTPAPTIASQPLSLRPEACRPAAGGAVHTRGLDFACDIYIWAPLAGTCGVLLLSLVITLYCKRGRKKLLYIFKQPFMRPVQTTQEEDGCSCRFPEEEEGGCELRVKFSRSADAPAYQQGQNQLYNELNLGRREEYDVLDKRRGRDPEMGGKPRRKNPQEGLYNELQKDKMAEAYSEIGMKGERRRGKGHDGLYQGLSTATKDTYDALHMQALPPR |
|  | ≥ 10 fold | 97.9% | 3980 | no binding (tested: 1000 nM) | 353 nM | 0.0141 s⁻¹ | 39900 M⁻¹ s⁻¹ |  |  |  |  | 20E12 (antibody, V domains shown, Hybridoma supernatant (AlivaMab mouse); captured/detected via mouse Fc) VH: EVNLVESGGGLVKPGGSLRLSCEASGFTFSYAWMSWVRQAPGKGLEWVGRIKSIADGGATDYAAPVRNRFTISRDDSRNTLYLEMHSLKTEDTAVYYCTTIPGNDAFDMWGQGTMVTVSS VL: DIVLTQSPLSLSVTPGEPASISCRSSQSLLYSNGKNYLDWFLHKPGQSPQLLIYLGSNRASGVPDRFSGSGSGIDFILKISRVEAEDVGVYYCMQAQQTPITFGQGTRLEIK |
|  | ≥ 10 fold | 98.5% | 4130 | no binding (tested: 1000 nM) | 340 nM | 0.0128 s⁻¹ | 37700 M⁻¹ s⁻¹ |  |  |  |  | 34E7 (antibody, V domains shown, Hybridoma supernatant (AlivaMab mouse); captured/detected via mouse Fc) VH: EVNLVESGGGLVKPGGSLRLSCEASGFTFSYAWMSWVRQAPGKGLEWVGRIKSINDGGATDYASPVRNRFTISRDDSRNMLYLEMHSLKTEDTAVYYCTTIPGNDAFDMWGQGTLVTVSS VL: DIVLTQSPLSLSVTPGEPASISCRSTQSLLYSNGKNYLDWFLHKPGQSPQLLIFLGSIRASGVPDRFSGSGSGIDFILKISRVEAEDVGVYYCMQAQQTPITFGQGTRLEIK |
|  | ≥ 10 fold | 98.6% | 3730 | no binding (tested: 1000 nM) | 1790 nM | 0.0122 s⁻¹ | 6820 M⁻¹ s⁻¹ |  |  |  |  | 32G8 (antibody, V domains shown, Hybridoma supernatant (AlivaMab mouse); captured/detected via mouse Fc) VH: EVNLVESGGGLVKPGGSLRLSCEASGFTFSYAWMSWVRQAPGKGLEWVGRIKSITDGGVIDYAAPVRNRCTISRDDSRNTLYLEMHSLKTEDTAVYYCTTIPGNDDFDMWGQGRMVTVSS VL: DIVLTQSPLSLSVTPGEPASISCRSSQSLLYSNGKNYLDWFLHKPGQSPQLLIYLGSNRASGVPDRFSGSGSGIDFILKISRVEAEDVGVYYCMQAQQTPITFGQGTRLEIK |
|  |  |  |  |  |  |  |  | no binding (tested: 1000 nM) | 894 nM | 0.019 s⁻¹ | 21000 M⁻¹ s⁻¹ | 20E12.HL scFv-Fc protein (Fc fusion, HL: heavy-chain variable domain at the N-terminus; not shown: human IgG1 Fc moiety) EVNLVESGGGLVKPGGSLRLSCEASGFTFSYAWMSWVRQAPGKGLEWVGRIKSIADGGATDYAAPVRNRFTISRDDSRNTLYLEMHSLKTEDTAVYYCTTIPGNDAFDMWGQGTMVTVSSGGGGSGGGGSGGGGSGGGGSDIVLTQSPLSLSVTPGEPASISCRSSQSLLYSNGKNYLDWFLHKPGQSPQLLIYLGSNRASGVPDRFSGSGSGIDFILKISRVEAEDVGVYYCMQAQQTPITFGQGTRLEIK |
|  |  |  |  |  |  |  |  | no binding (tested: 1000 nM) | 1490 nM | 0.013 s⁻¹ | 8700 M⁻¹ s⁻¹ | 32G8.HL scFv-Fc protein (Fc fusion, HL: heavy-chain variable domain at the N-terminus; not shown: human IgG1 Fc moiety) EVNLVESGGGLVKPGGSLRLSCEASGFTFSYAWMSWVRQAPGKGLEWVGRIKSITDGGVIDYAAPVRNRCTISRDDSRNTLYLEMHSLKTEDTAVYYCTTIPGNDDFDMWGQGRMVTVSSGGGGSGGGGSGGGGSGGGGSDIVLTQSPLSLSVTPGEPASISCRSSQSLLYSNGKNYLDWFLHKPGQSPQLLIYLGSNRASGVPDRFSGSGSGIDFILKISRVEAEDVGVYYCMQAQQTPITFGQGTRLEIK |
|  |  |  |  |  |  |  |  | no binding (tested: 1000 nM) | 349 nM | 0.038 s⁻¹ | 110000 M⁻¹ s⁻¹ | 30D8.LH scFv-Fc protein (Fc fusion, LH: light-chain variable domain at the N-terminus; not shown: human IgG1 Fc moiety) DIVMTQSPLSLPVTPGEPASISCRSSQSLLHNKRNNYLDWFLQKPGQSPQLLIYLASNRASGVPDRFSGGGSGTDFTLKISRVEAEDVGVYYCMQAQQTPITFGQGTRLEIKGGGGSGGGGSGGGGSGGGGSEVQLVESGGGLVKPGGSLRLSCEASGFTFSDAWMSWVRQAPGKGLEWVGRIKSKTDGGTTDYVVPLNGRFIISRDDSRNTLYLQLNNLKTEDTAVYYCTTVPGSYGYWGQGTLVTVSS |
|  |  | 98.5% | 4640 | no binding (tested: 1000 nM) | 231 nM | 0.0289 s⁻¹ | 125000 M⁻¹ s⁻¹ |  |  |  |  | 20G5 (antibody, V domains shown, Hybridoma supernatant (AlivaMab mouse); captured/detected via mouse Fc) VH: EVQLVESGGDLVKPGGSLRLSCAASGFTFTNAWMSWVRQAPGKGLEWVGRIKSKIDGGTTDYAAPVKGRFIISRDDSKNTLSLQMNSLKTEDTAMYYCTTAPGGPFDYWGQGSLVTVSS VL: DIVLTQSPLSLPVTPGEPASISCRSSQSLLYSDRRNYLDWFLQKPGQSPHLLIYLGSYRASGVPDRFSGSGSGTDFTLKISRVEAEDVGVYYCMQALQIPITFGQGTRLEIK |
|  | ≥ 10 fold | 98.6% | 5400 | no binding (tested: 1000 nM) | 244 nM | 0.032 s⁻¹ | 131000 M⁻¹ s⁻¹ |  |  |  |  | 26B9 (antibody, V domains shown, Hybridoma supernatant (AlivaMab mouse); captured/detected via mouse Fc) VH: EVQLVESWGVLVKPGGSLRLSCAASGFIFNNAWMSWVRQAPGKGLEWIGRIKSKSDGGTTDYAAPVKDRFTISRDDSKDTLYLQMNGLKTEDTAVYFCTTAPGGPFDYWGQGTLVTVSS VL: DIVLTQSPLSLPVTPGEPASISCRSSQSLLHRDGFNYLDWFLQKPGQSPQLLIYLASSRASGVPDRFSGSDSGTDFTLKISRVEAEDVGVYYCMQALQTPITFGQGTRLEIK |
|  | ≥ 10 fold | 98.6% | 5160 | no binding (tested: 1000 nM) | 172 nM | 0.0277 s⁻¹ | 161000 M⁻¹ s⁻¹ |  |  |  |  | 30D8 (antibody, V domains shown, Hybridoma supernatant (AlivaMab mouse); captured/detected via mouse Fc) VH: EVQLVESGGGLVKPGGSLRLSCEASGFTFSDAWMSWVRQAPGKGLEWVGRIKSKTDGGTTDYVVPLNGRFIISRDDSRNTLYLQLNNLKTEDTAVYYCTTVPGSYGYWGQGTLVTVSS VL: DIVMTQSPLSLPVTPGEPASISCRSSQSLLHNKRNNYLDWFLQKPGQSPQLLIYLASNRASGVPDRFSGGGSGTDFTLKISRVEAEDVGVYYCMQAQQTPITFGQGTRLEIK |
|  |  |  |  |  |  |  |  | no binding (tested: 1000 nM) | 932 nM | 0.015 s⁻¹ | 16000 M⁻¹ s⁻¹ | 20E12.LH scFv-Fc protein (Fc fusion, LH: light-chain variable domain at the N-terminus; not shown: human IgG1 Fc moiety) DIVLTQSPLSLSVTPGEPASISCRSSQSLLYSNGKNYLDWFLHKPGQSPQLLIYLGSNRASGVPDRFSGSGSGIDFILKISRVEAEDVGVYYCMQAQQTPITFGQGTRLEIKGGGGSGGGGSGGGGSGGGGSEVNLVESGGGLVKPGGSLRLSCEASGFTFSYAWMSWVRQAPGKGLEWVGRIKSIADGGATDYAAPVRNRFTISRDDSRNTLYLEMHSLKTEDTAVYYCTTIPGNDAFDMWGQGTMVTVSS |
|  |  |  |  |  |  |  |  | no binding (tested: 1000 nM) | 225 nM | 0.053 s⁻¹ | 230000 M⁻¹ s⁻¹ | 30D8.HL scFv-Fc protein (Fc fusion, HL: heavy-chain variable domain at the N-terminus; not shown: human IgG1 Fc moiety) EVQLVESGGGLVKPGGSLRLSCEASGFTFSDAWMSWVRQAPGKGLEWVGRIKSKTDGGTTDYVVPLNGRFIISRDDSRNTLYLQLNNLKTEDTAVYYCTTVPGSYGYWGQGTLVTVSSGGGGSGGGGSGGGGSGGGGSDIVMTQSPLSLPVTPGEPASISCRSSQSLLHNKRNNYLDWFLQKPGQSPQLLIYLASNRASGVPDRFSGGGSGTDFTLKISRVEAEDVGVYYCMQAQQTPITFGQGTRLEIK |
